In publication PMC3229514, “Both hMutSα and hMutSß DNA Mismatch Repair Complexes Participate in 5-Fluorouracil Cytotoxicity”:

Columns and labels:
hMutSβ (hMSH2-hMSH3) = hMutSβ (hMSH2-hMSH3) (human, UniProt P43246;P20585 1-934;1-1137); assay: SPR (IAsys); 10 mM Mg2+; EMSA: 100 nM hMutSβ, 20 mM HEPES pH 7.6, 1 mM EDTA, 1 mM DTT, 10% glycerol, 100 µg poly(dI-dC), 10 µl; IAsys: 100 nM protein, 25 mM Tris-Cl pH 7.8, 20 mM NaCl; details: protein: recombinant, copies: 1;1, label: 5'-32P on S5 (EMSA), 5'-biotin on S5 (IAsys)
hMutSα = hMutSα (human, UniProt P43246;P52701 1-934;1-1360); assay: as above; details: protein: recombinant; copies: 1;1; label: 5'-32P on S5 (EMSA); 5'-biotin on S5 (IAsys); blunt; 5FdU opposite A by the printed complement

Binder	binding signal (hMutSβ (hMSH2-hMSH3); blunt, 5FdU opposite A by the printed complement)	binding signal (hMutSα)	binding signal (hMutSβ (hMSH2-hMSH3); blunt ends, 2-nt AA loop in strand 1 (40 nt vs 38 nt))
5-FU-containing 38-mer duplex (dsDNA, 5-fluoro-2'-deoxyuridine at position 19 of strand 1 (written U)) DNA 1: TTTCTGACTTGGATACCAUCTATCTATCTATAAAATAT DNA 2: ATATTTTATAGATAGATAGATGGTATCCAAGTCAGAAA	~1.3 fold vs complementary DNA	~2 fold vs hMutSβ on same DNA	–
AA insertion/deletion loop duplex (dsDNA) DNA 1: TTTCTGACTTGGATACCATCTATCTATCTATAAAAAATAT DNA 2: ATATTTTATAGATAGATAGATGGTATCCAAGTCAGAAA	–	–	~1.8 fold vs complementary DNA
